Data as given in US20250325718A1, “IMMUNOCONJUGATES COMPRISING KALLIKREIN RELATED PEPTIDASE 2 ANTIGEN BINDING DOMAINS AND THEIR USES” (Janssen Biotech, Inc., priority 2021, published 2025).

Assay: DTPA challenge of Ac-225 labeled TOPA-[C7]-phenylthiourea-h11B6 (iTLC)
Format: physicochemical
Settings: for DTPA challenge: chelated Ac-225 (iTLC): labeling reaction mixture, 10 mM DTPA pH 6.5, 37° C., 30 min
Method: 0.5 μL of the labeling reaction mixture was also mixed with 10 mM DTPA (pH=6.5, 15 μL) at 37° C. After 30 min, 10 μL of the mixture was spotted on iTLC-SG and developed by 10 mM EDTA. The dried iTLC-SG was left at room temperature for overnight before it was scanned on a Bioscan AR-2000 radio-TLC scanner. Under the elution conditions described herein, TOPA-[C7]-phenylthiourea-h11B6 chelated Ac-225 ^st ayed at the origin and any free Ac-225 would migrate with the solvent to the solvent front.
10 μL of fraction #3 collected after PD-10 column was mixed with 15 μL of 10 mM DTPA solution (pH 6.5), and incubated for 30 min. 10 μL of the mixture was loaded onto an iTLC-SG, which was developed with 10 mM EDTA and dried overnight. It was scanned on a Bioscan AR-2000 radio-TLC scanner.

[1] = 25 mM NaOAc, 0.04% PS-20, pH 5.5 (conjugate 10.4 mg/mL)
[2] = 1.0M NaOAc, 0.04% PS-20 (conjugate 9.36 mg/mL)
[3] = 1.5M NaOAc, 0.04% PS-20 (conjugate 9.36 mg/mL)
[4] = 3M NaOAc buffer (conjugate […])

| Substance | DTPA challenge of the purified conjugate: free Ac-225 (iTLC) (fraction #3 after PD-10 column, 10 mM DTPA pH 6.5, 30 min) | DTPA challenge: chelated Ac-225 (iTLC) [1] [%] | DTPA challenge: chelated Ac-225 (iTLC) [2] [%] | DTPA challenge: chelated Ac-225 (iTLC) [3] [%] | DTPA challenge: chelated Ac-225 (iTLC) [4] [%] |
| --- | --- | --- | --- | --- | --- |
| Ac-225 labeled TOPA-[C7]-phenylthiourea-h11B6 antibody conjugate [Example 21] | no free Ac-225 | 99.8 | 99.9 | 99.9 | 99.7 |
| TOPA-[C7]-phenylthiourea-h11B6 Antibody Conjugate [Example 20] | – | >99 | >99 | >99 | >99 |
